Four sequences from article PMC2386467 can be followed below.

This series deals with Rap2.6 (Arabidopsis thaliana) (UniProt Q7G1L2). In words: EMSA. As to conditions: EMSA: 2.5 ug protein, 20 ng DNA, 0.5x TBE, 20 min room temperature, 6-7% native PAGE, anti-His blot; affinity assay: 2 ug protein, 100 pmol F5, 0.5x TBE, 10 min. In general terms: Mobility shift assays separate free from complexed probe on a gel.
Rap2.6 (Arabidopsis thaliana), sequence (Q7G1L2 whole entry): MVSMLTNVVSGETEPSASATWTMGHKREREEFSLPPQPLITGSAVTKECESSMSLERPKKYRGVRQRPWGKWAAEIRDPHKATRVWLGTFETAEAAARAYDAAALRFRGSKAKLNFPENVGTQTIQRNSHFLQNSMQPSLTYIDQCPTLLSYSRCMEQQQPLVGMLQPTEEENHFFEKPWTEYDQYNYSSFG

Take “AAACCATGGCATGCATAAGAGTCTTGAGCATAATAATGAAACCTGGATTTCCCGGA (double strand) [F1]”: the binding entry is reported as “no binding”.
In the case of “CTCCGGTCACGCGATTCAACTTATATCTTCTCTCAGAACTGTCAACACTTGAAAGGAGAAGATCGAGAGAATTAATGAGACAACAGAGAAACCACTAAAAATCAAAACTTTGCAAAATAAGTGAAGAAGCCTTTTAAAGTAAACCAAGTGAAGAGAG (double strand) [F5]” it was “no binding”.
In the case of “TCTCCGTCATCGAACTTTGATCACAAATACAAAAAACAAAACAAAAAGTGTAACTATAGTCAAAGAAATTAGAAAATTTCGTAAAAGATTAATGTAACAATACCCAGAAACTCTGC (double strand) [F3]” it was “no binding”; in that of “AAACCATGGCATGCATAAGAGTCTTGAGCATAATAATGAAACCTGGATTTCCCGGAATAAACAATACATGGAATGTGGGATTCTCAGCTTGAATTTCCATCATCTCCGTCATC (double strand) [F2]”, “no binding”.
